The chains are these.
B1: Hairpin Ribozyme (parent)
chain: GUCCUCUUUCACGUGCGCGUGAAAGAGAGAAGUGAACCAGAGAAACACACGUUGUGGUAUAUUACCUGGUA

The data set covers variants of B1. Briefly: self-cleavage, relative activity (ratio to wild type); higher = more cleavage; co-transcriptional.
In the case of G21U A64C, the self-cleavage is 0.149. Next, A22U A24G: 0.76; A22C A24U: 0.485. Turning to G21C A64G, the self-cleavage came to 0.564.

For the variant G21U A30C, the self-cleavage stood at 0.232. Next, G21U G69C: 0.293; G21U G69U: 0.211.

With G21U G69A, the self-cleavage was 0.374. Take A22G A45G: the self-cleavage was 0.115. As to A22G A45U, the self-cleavage amounted to 0.268.

G21C G29U: the self-cleavage worked out at 0.316. Take G21U A39U: the self-cleavage was 0.293.

With A22G A24C, the self-cleavage came out at 0.705. Next, A22C A45C: 0.128; A22C A45U: 0.108; A23C A28C: 0.349. In the case of A23C A28G it was 0.977; in that of A22U G29A, 0.13; in that of A23G C48U, 0.232. For G21U G32U, the self-cleavage is 0.1.

As to G21U A44U, the self-cleavage was 0.165. In the case of G21C A35C it was 0.748; in that of G21C U53A, 0.671; in that of G21U U33C, 0.192. In the case of A23G G34C it was 1.07; in that of A22U C37U, 0.443. For the variant A22U C37A, the self-cleavage came out at 0.352. Next, G21C A44G: 0.194; G21C A44C: 0.0985; A23G G27C: 0.149.

Consider A23C A24C, for which the self-cleavage stood at 0.718. Next, A23C A24G: 0.85. For the variant A22G A44U, the self-cleavage was found to be 0.123. For A22G A44G, the self-cleavage was 0.193. In the case of A22G A71C it was 1.28; in that of A22G U67C, 0.231; in that of A22G U67G, 0.247. In the case of A22G U67A it was 0.239; in that of A22G G25C, 0.547; in that of A22G C65U, 0.395.

Consider G21U C37U, for which the self-cleavage worked out at 0.373.

Turning to A23G G29C, the self-cleavage was determined as 0.123. Next, A23G G29A: 0.0583; G21C U63G: 0.191.

G21C U63A: the self-cleavage was found to be 0.0855. For A22C A49C, the self-cleavage came out at 0.264. Next, A22C A61G: 0.123. Consider A22C A47C, for which the self-cleavage came out at 0.24.

In the case of A22C A47U, the self-cleavage came to 0.208.

Consider A22C A47G, for which the self-cleavage came to 0.187. On to A23G G56U, for which the self-cleavage came to 0.162. Next, A23G G56C: 0.145; A23C: 0.822; A23G: 0.851.

For the variant A22G C66A, the self-cleavage worked out at 0.172.

Turning to A22G C66U, the self-cleavage is 0.453. Next, A22C U58A: 0.68; A23C U67A: 0.211; A23C U67C: 0.249.

As to A23G C66U, the self-cleavage amounted to 0.456. Next, A23C U33G: 0.171; A23C U33C: 0.307. In the case of A22C A26U it was 0.429; in that of G21C G69A, 0.419.

For A23C G57A, the self-cleavage is 0.196. For A22U A23U, the self-cleavage turned out to be 0.842. In the case of G21U U58A it was 0.493; in that of A22G A28G, 0.735; in that of G21C U70G, 0.658. In the case of A23G G32U it was 0.0923; in that of A23G G32C, 0.163; in that of A22C C66G, 0.0576.

On to G21U G56C, for which the self-cleavage was 0.116. Regarding A22U G34A, the self-cleavage was 1.24. Turning to A22G C37G, the self-cleavage is 0.291. Next, G21C G27A: 0.186; G21A U33G: 0.104. In the case of A23G A24G it was 0.715; in that of A22U C50U, 0.342. Next, A22U C50A: 0.211. For A23G A64C, the self-cleavage was found to be 0.2. Take A22G U53C: the self-cleavage is 0.817. In the case of A22C A39C it was 0.539; in that of A22C A39G, 0.362.

Regarding A22G U60G, the self-cleavage worked out at 0.416. Next, A22G U60C: 0.899. In the case of G21U G40U it was 0.147; in that of G21U G40A, 0.309. In the case of A22U G42A it was 0.264; in that of A22U G69U, 0.259; in that of A22U C46G, 0.166. Take A23G A41C: the self-cleavage amounted to 1.19. For A23G A41U, the self-cleavage stood at 1.09. Next, A22C A41C: 1.22. Next, A23C U60G: 0.61; G21C A22C: 0.61; G21C A22U: 0.715. Take G21U U60G: the self-cleavage was 0.48.

Turning to G21U U60A, the self-cleavage stood at 0.851. Next, A22U A43G: 0.237; G21U G34U: 1.24; A23G A44C: 0.0975. In the case of A22G C48G it was 0.136; in that of A22G C48A, 0.16. In the case of A22C A64U it was 0.251; in that of A22C A64C, 0.101; in that of A23G C65U, 0.349. For the variant A23C G27C, the self-cleavage worked out at 0.187. In the case of A23C G27A it was 0.464; in that of A23C U62G, 0.0867; in that of A23G G54U, 0.586. In the case of A23G G54C it was 0.363; in that of A23C A44U, 0.129. Next, A23C A44G: 0.056; A23G A59C: 0.0706. For A22G A59C, the self-cleavage is 0.122. In the case of A22C A30U it was 0.0473. In the case of A22C A30G it was 0.179; in that of G21C A47U, 0.181; in that of G21C A47C, 0.254. Next, A22U A45U: 0.143. Take A22G A26U: the self-cleavage turned out to be 0.528. With A22G U63C, the self-cleavage came out at 0.245. Consider G21C C50G, for which the self-cleavage came to 0.278. Next, A23C G54C: 0.337.

Take G21U A31G: the self-cleavage came to 0.325. In the case of G21U A31C it was 0.0844; in that of A22G U33C, 0.192. On to A22G U33A, for which the self-cleavage came to 0.115. Regarding A22C A28C, the self-cleavage worked out at 0.386.

Take A22C A28U: the self-cleavage worked out at 0.504. Next, G21U A22C: 0.763.

G21U A22G: the self-cleavage stood at 0.736. In the case of A23C A39G it was 0.248; in that of A22C G69U, 0.152. Turning to A22C G69A, the self-cleavage was 0.448. In the case of G21U G57A it was 0.148; in that of G21U G57U, 0.224.

Take A22G A31U: the self-cleavage is 0.226. Next, G21U C66U: 0.427; A23C U52C: 0.77. Consider A23C U52G, for which the self-cleavage was found to be 0.489. In the case of A22U A71C it was 1.37. In the case of A23G G25A, the self-cleavage is 0.413.

For A23G G25U, the self-cleavage turned out to be 0.357.

Consider A22C G34A, for which the self-cleavage is 1.04. Next, A22C G34U: 1.49; A22C G34C: 1.22; A23G A43C: 0.169. Next, A23C C65U: 0.282; A23C C65A: 0.818; A23G A35U: 0.626.

Consider A23G A35C, for which the self-cleavage came to 1. In the case of A22G G51C it was 0.745. Next, G21U U62G: 0.156; A22C C46U: 0.141; A22C C46G: 0.187. Next, G21C A43U: 0.0826; A22U A39U: 0.359; A23C G40C: 0.0333. Take G21C U52A: the self-cleavage amounted to 0.909. Next, G21C U52C: 0.971; A23C C38U: 0.398. Next, A23C C38A: 0.161. Next, G21U A35C: 0.841; G21U A35U: 0.626; G21U G51U: 0.992.
